Measurements: paper PMC6085827

Target: S-tagged long RECK isoform (human) (UniProt O95980)
Assay: co-IP

UniProt O95980, sequence (O95980 23-942): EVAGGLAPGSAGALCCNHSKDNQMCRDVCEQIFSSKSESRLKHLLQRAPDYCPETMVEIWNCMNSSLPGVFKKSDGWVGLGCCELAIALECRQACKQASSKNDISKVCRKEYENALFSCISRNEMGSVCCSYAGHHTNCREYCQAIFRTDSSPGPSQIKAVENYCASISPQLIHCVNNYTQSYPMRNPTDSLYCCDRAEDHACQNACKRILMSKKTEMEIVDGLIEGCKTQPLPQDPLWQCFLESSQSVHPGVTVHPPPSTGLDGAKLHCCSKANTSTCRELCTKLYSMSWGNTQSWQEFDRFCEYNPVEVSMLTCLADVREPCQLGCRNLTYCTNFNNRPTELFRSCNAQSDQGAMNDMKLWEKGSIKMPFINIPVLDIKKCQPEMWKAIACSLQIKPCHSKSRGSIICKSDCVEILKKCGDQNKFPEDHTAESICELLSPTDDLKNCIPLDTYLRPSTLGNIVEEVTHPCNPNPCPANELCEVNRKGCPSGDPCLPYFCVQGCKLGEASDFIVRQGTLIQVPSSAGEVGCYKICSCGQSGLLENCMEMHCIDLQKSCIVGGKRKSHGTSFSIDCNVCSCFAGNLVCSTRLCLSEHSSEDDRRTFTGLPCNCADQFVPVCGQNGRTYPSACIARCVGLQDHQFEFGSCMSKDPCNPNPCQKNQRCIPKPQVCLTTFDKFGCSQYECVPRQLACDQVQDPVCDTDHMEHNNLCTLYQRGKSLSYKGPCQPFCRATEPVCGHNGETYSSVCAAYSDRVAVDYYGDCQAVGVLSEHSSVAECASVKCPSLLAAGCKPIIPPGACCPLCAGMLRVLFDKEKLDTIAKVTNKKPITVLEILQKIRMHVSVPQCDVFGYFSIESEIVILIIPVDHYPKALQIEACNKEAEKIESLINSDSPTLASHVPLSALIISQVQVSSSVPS

Flag-tagged short RECK isoform (natural protein)
percent reduction of MMP9 co-immunoprecipitated with long RECK: 88%
